Test results published in patent US6355481.

Molecular target: HAP1-A (Huntingtin Associated Protein 1-A) (UniProt P54256)
Test: cell-based or functional assay

Chain of HAP1-A (Huntingtin Associated Protein 1-A) (P54256 other isoform, or with tags, fused parts or gaps limits assumed): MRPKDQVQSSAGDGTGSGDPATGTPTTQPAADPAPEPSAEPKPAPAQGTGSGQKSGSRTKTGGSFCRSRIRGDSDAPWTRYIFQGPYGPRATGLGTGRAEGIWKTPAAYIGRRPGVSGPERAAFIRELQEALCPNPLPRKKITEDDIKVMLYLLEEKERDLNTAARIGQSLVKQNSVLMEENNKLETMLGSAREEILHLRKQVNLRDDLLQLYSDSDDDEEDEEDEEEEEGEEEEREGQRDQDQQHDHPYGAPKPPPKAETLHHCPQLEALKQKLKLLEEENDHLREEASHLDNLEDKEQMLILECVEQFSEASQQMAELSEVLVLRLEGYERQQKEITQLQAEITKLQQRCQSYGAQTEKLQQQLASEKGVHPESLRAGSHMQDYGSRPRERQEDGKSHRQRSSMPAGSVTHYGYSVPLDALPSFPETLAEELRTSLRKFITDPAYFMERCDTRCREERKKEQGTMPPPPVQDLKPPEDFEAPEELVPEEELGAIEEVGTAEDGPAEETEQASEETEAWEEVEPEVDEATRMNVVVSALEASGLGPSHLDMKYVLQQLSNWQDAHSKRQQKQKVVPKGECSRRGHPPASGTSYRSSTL

| Substance | percentage of HAP1-A and huntingtin double-transfected PC12 cells with elongated neurites [%] |
| --- | --- |
| N-terminal region of human huntingtin protein (amino acids 1-253) with 73 glutamines (HD-73Q) (from UniProt P42858 1-253) | 15.2 |
| N-terminal region of human huntingtin protein (amino acids 1-253) with 120 glutamines (HD-120Q) (from UniProt P42858 1-253) | 7.5 |
